Experimental data as given in PMC5899157 (2018).

T1: mCXCL5 displayed on the surface of yeast as N-terminal fusion of Aga2p (mouse)
T1 chain: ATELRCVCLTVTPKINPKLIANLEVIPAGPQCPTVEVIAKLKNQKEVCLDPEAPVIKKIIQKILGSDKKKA

T2: mCXCL3 displayed on the surface of yeast as N-terminal fusion of Aga2p (mouse, UniProt Q6W5C0 32-100)
T2 chain: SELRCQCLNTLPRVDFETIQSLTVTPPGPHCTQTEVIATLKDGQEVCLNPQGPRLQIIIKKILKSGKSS

B1: mCXCL1 displayed on the surface of yeast as N-terminal fusion of Aga2p (ligand)
chain: APIANELRCQCLQTMAGIHLKNIQSLKVLPSGPHCTQTEVIATLKNGREACLDPEAPLVQKIVQKMLKGVPK
B2: mCXCL2 displayed on the surface of yeast as N-terminal fusion of Aga2p (ligand)
chain: AVVASELRCQCLKTLPRVDFKNIQSLSVTPPGPHCAQTEVIATLKGGQKVCLDPEAPLVQKIIQKILNKGKAN

Legend:
Experiment in all cases: FACS
hCXCL3 = molecular target: hCXCL3
hCXCL2 = molecular target: hCXCL2
hCXCL8 = molecular target: hCXCL8
hCXCL6 = molecular target: hCXCL6
hCXCL5 = molecular target: hCXCL5
[1] = molecular target: T1, mCXCL5 displayed on the surface of …
[2] = molecular target: T2, mCXCL3 displayed on the surface of …
[3] = molecular target: B2
[4] = molecular target: B1
[5] = molecular target: wild-type hCXCL1 displayed on the surface of yeast as N-terminal fusion of Aga2p (human, UniProt P09341 35-107)
[6] = molecular target: SA157*, separate mouse serum albumin fusions of the VL and VH domains of CK157 mixed in equimolar amounts

Chain of wild-type hCXCL1 displayed on the surface of yeast as N-terminal fusion of Aga2p (P09341 35-107): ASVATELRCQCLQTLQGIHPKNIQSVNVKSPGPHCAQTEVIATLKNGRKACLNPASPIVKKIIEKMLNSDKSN

Kd (hCXCL3) [nM] | Kd (hCXCL2) [nM] | Kd [4] [nM] | Kd [6] [nM] | Binder | further results
836 | 1590 | 29.4 |  | SA138, mouse serum albumin fused to the CK138 single-chain variable antibody fragment (scFv, V domains shown) VH: EVQLVESDGGLVQPGGSLRLSCAASGFNLSYYGMHWVRQAPGKGLEWVAYIASYPGYTSYADSVKGRFTISADTSKNTAYLQMNSLRAEDTAVYYCARSGYSYSPYYSWFSAGMNYWGQGALVTVSS VL: AIQMTRSPSSLSASVGDRVTITCRASQYHDGSAAWYQQKPGKAPKLLIYGASYLYSGVPSRFSGSRSGTDFTLTISSLQPEDFATYYCQQSSYSLITFGQGTKVEIK | Kd (hCXCL8): 14.7 nM; Kd (hCXCL6): 5000 nM; Kd (hCXCL5): 33.7 nM; Kd [1]: 357 nM; Kd [2]: 31.1 nM; Kd [3]: 16.7 nM
9.2 | 43.6 | 2.9 |  | SA129, mouse serum albumin fused to the CK129 single-chain variable antibody fragment (scFv, V domains shown) VH: EVQLVESGGGLVQPGGSLRLSCAASGFNISSYGSMHWVRQAPGKGLEWVASIYPYSSSTYYADSVKGRFTISADTSKNTAYLQMNSLRAEDTAVYYCARGYGPWYAYSYFALDYWGQGTLVTVSS VL: DIQMTQSPSPLSASVGDRVTITCRASQYGGYVAWYQQKPGKAPKLLIYGASLLYSGVPSRFSGGRSGTDFTLTISSLQPEDFATYYCQRGHALITFGQGTKVEIE | Kd [5]: 2.7 nM
 |  |  | 666 | B1 | 
 |  |  | 591 | B2 | 
